{"source": "patent US20040018561A1", "about": "“Peptide compounds and their use as protease substrates” (priority 2002, published 2004)", "key": {"[1]": {"tested_on": "COc1ccc2c(CC(=O)N[C@@H](CCCNC(=N)N)C(=O)N3CCC[C@@H]3C(=O)N[C@@H](CC(C)C)C(=O)NCC(=O)N[C@@H](CC(C)C)C(=O)N[C@H](CNc3ccc([N+](=O)[O-])cc3[N+](=O)[O-])C(=O)N[C@@H](C)C(=O)N[C@H](CCCNC(=N)N)C(=O)N[C@@H](CCC(=O)O)C(=O)N[C@H](CCCNC(=N)N)C(N)=O)cc(=O)oc2c1", "assay": "Km and kcat/Km of substrates with MMP-3", "format": "biochemical", "details": "other: substrate cleavage by MMP-3"}, "[2]": {"tested_on": "COc1ccc2c(CC(=O)N[C@@H](CCCNC(=N)N)C(=O)N3CCC[C@H]3C(=O)N[C@@H](CC(C)C)C(=O)NCC(=O)N[C@@H](CCCCOCc3ccccc3)C(=O)N[C@@H](CNc3ccc([N+](=O)[O-])cc3[N+](=O)[O-])C(=O)N[C@@H](C)C(=O)N[C@@H](CCCNC(=N)N)C(=O)N[C@@H](CCC(=O)O)C(=O)N[C@@H](CCCNC(=N)N)C(N)=O)cc(=O)oc2c1", "assay": "Km and kcat/Km of substrates with MMP-3", "format": "biochemical", "details": "other: substrate cleavage by MMP-3"}, "[3]": {"tested_on": "COc1ccc2c(CC(=O)N[C@H](CCCNC(=N)N)C(=O)N3CCC[C@H]3C(=O)N[C@@H](CC(C)C)C(=O)NCC(=O)N[C@@H](CCCCOCc3ccccc3)C(=O)N[C@@H](CNc3ccc([N+](=O)[O-])cc3[N+](=O)[O-])C(=O)N[C@@H](C)C(=O)N[C@H](CCCNC(=N)N)C(=O)N[C@H](CCC(=O)O)C(=O)N[C@H](CCCNC(=N)N)C(N)=O)cc(=O)oc2c1", "assay": "Km and kcat/Km of substrates with MMP-3", "format": "biochemical", "details": "other: substrate cleavage by MMP-3"}, "[4]": {"tested_on": "COc1ccc2c(CC(=O)N[C@@H](CCCNC(=N)N)C(=O)N3CCC[C@@H]3C(=O)N[C@@H](CC(C)C)C(=O)NCC(=O)N[C@@H](CC(C)C)C(=O)N[C@H](CNc3ccc([N+](=O)[O-])cc3[N+](=O)[O-])C(=O)N[C@@H](C)C(=O)N[C@H](CCCNC(=N)N)C(=O)N[C@@H](CCC(=O)O)C(=O)N[C@H](CCCNC(=N)N)C(N)=O)cc(=O)oc2c1", "assay": "purified protein, by the assay type", "details": "other: substrate cleavage by MMP-14"}, "[5]": {"tested_on": "COc1ccc2c(CC(=O)N[C@@H](CCCNC(=N)N)C(=O)N3CCC[C@H]3C(=O)N[C@@H](CC(C)C)C(=O)NCC(=O)N[C@@H](CCCCOCc3ccccc3)C(=O)N[C@@H](CNc3ccc([N+](=O)[O-])cc3[N+](=O)[O-])C(=O)N[C@@H](C)C(=O)N[C@@H](CCCNC(=N)N)C(=O)N[C@@H](CCC(=O)O)C(=O)N[C@@H](CCCNC(=N)N)C(N)=O)cc(=O)oc2c1", "assay": "purified protein, by the assay type", "details": "other: substrate cleavage by MMP-14"}, "[6]": {"tested_on": "COc1ccc2c(CC(=O)N[C@H](CCCNC(=N)N)C(=O)N3CCC[C@H]3C(=O)N[C@@H](CC(C)C)C(=O)NCC(=O)N[C@@H](CCCCOCc3ccccc3)C(=O)N[C@@H](CNc3ccc([N+](=O)[O-])cc3[N+](=O)[O-])C(=O)N[C@@H](C)C(=O)N[C@H](CCCNC(=N)N)C(=O)N[C@H](CCC(=O)O)C(=O)N[C@H](CCCNC(=N)N)C(N)=O)cc(=O)oc2c1", "assay": "purified protein, by the assay type", "details": "other: substrate cleavage by MMP-14"}, "[7]": {"tested_on": "COc1ccc2c(CC(=O)N[C@H](CCCNC(=N)N)C(=O)N3CCC[C@H]3C(=O)N[C@@H](CC(C)C)C(=O)NCC(=O)N[C@@H](CCCCOc3ccccc3)C(=O)N[C@@H](CNc3ccc([N+](=O)[O-])cc3[N+](=O)[O-])C(=O)N[C@@H](C)C(=O)N[C@H](CCCNC(=N)N)C(=O)N[C@H](CCC(=O)O)C(=O)N[C@H](CCCNC(=N)N)C(N)=O)cc(=O)oc2c1", "assay": "purified protein, by the assay type", "details": "other: substrate cleavage by MMP-14"}, "[8]": {"tested_on": "COc1ccc2c(CC(=O)N[C@@H](CCCNC(=N)N)C(=O)N3CCC[C@@H]3C(=O)N[C@@H](CC(C)C)C(=O)NCC(=O)N[C@@H](CC(C)C)C(=O)N[C@H](CNc3ccc([N+](=O)[O-])cc3[N+](=O)[O-])C(=O)N[C@@H](C)C(=O)N[C@H](CCCNC(=N)N)C(=O)N[C@@H](CCC(=O)O)C(=O)N[C@H](CCCNC(=N)N)C(N)=O)cc(=O)oc2c1", "assay": "Km and kcat/Km of substrates with MMP-13", "format": "biochemical", "details": "other: substrate cleavage by MMP-13"}, "[9]": {"tested_on": "COc1ccc2c(CC(=O)N[C@@H](CCCNC(=N)N)C(=O)N3CCC[C@H]3C(=O)N[C@@H](CC(C)C)C(=O)NCC(=O)N[C@@H](CCCCOCc3ccccc3)C(=O)N[C@@H](CNc3ccc([N+](=O)[O-])cc3[N+](=O)[O-])C(=O)N[C@@H](C)C(=O)N[C@@H](CCCNC(=N)N)C(=O)N[C@@H](CCC(=O)O)C(=O)N[C@@H](CCCNC(=N)N)C(N)=O)cc(=O)oc2c1", "assay": "Km and kcat/Km of substrates with MMP-13", "format": "biochemical", "details": "other: substrate cleavage by MMP-13"}, "[10]": {"tested_on": "COc1ccc2c(CC(=O)N[C@H](CCCNC(=N)N)C(=O)N3CCC[C@H]3C(=O)N[C@@H](CC(C)C)C(=O)NCC(=O)N[C@@H](CCCCOCc3ccccc3)C(=O)N[C@@H](CNc3ccc([N+](=O)[O-])cc3[N+](=O)[O-])C(=O)N[C@@H](C)C(=O)N[C@H](CCCNC(=N)N)C(=O)N[C@H](CCC(=O)O)C(=O)N[C@H](CCCNC(=N)N)C(N)=O)cc(=O)oc2c1", "assay": "Km and kcat/Km of substrates with MMP-13", "format": "biochemical", "details": "other: substrate cleavage by MMP-13"}, "[11]": {"tested_on": "COc1ccc2c(CC(=O)N[C@H](CCCNC(=N)N)C(=O)N3CCC[C@H]3C(=O)N[C@@H](CC(C)C)C(=O)NCC(=O)N[C@@H](CCCCOc3ccccc3)C(=O)N[C@@H](CNc3ccc([N+](=O)[O-])cc3[N+](=O)[O-])C(=O)N[C@@H](C)C(=O)N[C@H](CCCNC(=N)N)C(=O)N[C@H](CCC(=O)O)C(=O)N[C@H](CCCNC(=N)N)C(N)=O)cc(=O)oc2c1", "assay": "Km and kcat/Km of substrates with MMP-13", "format": "biochemical", "details": "other: substrate cleavage by MMP-13"}, "[12]": {"tested_on": "COc1ccc2c(CC(=O)N[C@@H](CCCNC(=N)N)C(=O)N3CCC[C@@H]3C(=O)N[C@@H](CC(C)C)C(=O)NCC(=O)N[C@@H](CC(C)C)C(=O)N[C@H](CNc3ccc([N+](=O)[O-])cc3[N+](=O)[O-])C(=O)N[C@@H](C)C(=O)N[C@H](CCCNC(=N)N)C(=O)N[C@@H](CCC(=O)O)C(=O)N[C@H](CCCNC(=N)N)C(N)=O)cc(=O)oc2c1", "assay": "Km and kcat/Km of substrates with MMP-8", "format": "biochemical", "details": "other: substrate cleavage by MMP-8"}, "[13]": {"tested_on": "COc1ccc2c(CC(=O)N[C@@H](CCCNC(=N)N)C(=O)N3CCC[C@H]3C(=O)N[C@@H](CC(C)C)C(=O)NCC(=O)N[C@@H](CCCCOCc3ccccc3)C(=O)N[C@@H](CNc3ccc([N+](=O)[O-])cc3[N+](=O)[O-])C(=O)N[C@@H](C)C(=O)N[C@@H](CCCNC(=N)N)C(=O)N[C@@H](CCC(=O)O)C(=O)N[C@@H](CCCNC(=N)N)C(N)=O)cc(=O)oc2c1", "assay": "Km and kcat/Km of substrates with MMP-8", "format": "biochemical", "details": "other: substrate cleavage by MMP-8"}, "[14]": {"tested_on": "COc1ccc2c(CC(=O)N[C@H](CCCNC(=N)N)C(=O)N3CCC[C@H]3C(=O)N[C@@H](CC(C)C)C(=O)NCC(=O)N[C@@H](CCCCOCc3ccccc3)C(=O)N[C@@H](CNc3ccc([N+](=O)[O-])cc3[N+](=O)[O-])C(=O)N[C@@H](C)C(=O)N[C@H](CCCNC(=N)N)C(=O)N[C@H](CCC(=O)O)C(=O)N[C@H](CCCNC(=N)N)C(N)=O)cc(=O)oc2c1", "assay": "Km and kcat/Km of substrates with MMP-8", "format": "biochemical", "details": "other: substrate cleavage by MMP-8"}, "[15]": {"tested_on": "COc1ccc2c(CC(=O)N[C@H](CCCNC(=N)N)C(=O)N3CCC[C@H]3C(=O)N[C@@H](CC(C)C)C(=O)NCC(=O)N[C@@H](CCCCOc3ccccc3)C(=O)N[C@@H](CNc3ccc([N+](=O)[O-])cc3[N+](=O)[O-])C(=O)N[C@@H](C)C(=O)N[C@H](CCCNC(=N)N)C(=O)N[C@H](CCC(=O)O)C(=O)N[C@H](CCCNC(=N)N)C(N)=O)cc(=O)oc2c1", "assay": "Km and kcat/Km of substrates with MMP-8", "format": "biochemical", "details": "other: substrate cleavage by MMP-8"}}}
{"substance": "MMP-3 (Homo sapiens)", "values": [{"measurement": "Km", "setting": "[1]", "value": 14, "unit": "µM"}, {"measurement": "kcat/Km", "setting": "[1]", "value": 0.63, "unit": "M^−1s^−1×10^4"}, {"measurement": "Km", "setting": "[2]", "value": 85.9, "unit": "µM"}, {"measurement": "kcat/Km", "setting": "[2]", "value": 0.48, "unit": "M^−1s^−1×10^4"}, {"measurement": "Km", "setting": "[3]", "value": 28.9, "unit": "µM"}, {"measurement": "kcat/Km", "setting": "[3]", "value": 0.16, "unit": "M^−1s^−1×10^4"}]}
{"substance": "MMP-14 (Homo sapiens)", "values": [{"measurement": "Km", "setting": "[4]", "value": 27.2, "unit": "µM"}, {"measurement": "kcat/Km", "setting": "[4]", "value": 4.1, "unit": "M^−1s^−1×10^4"}, {"measurement": "Km", "setting": "[5]", "value": 12, "unit": "µM"}, {"measurement": "kcat/Km", "setting": "[5]", "value": 8.3, "unit": "M^−1s^−1×10^4"}, {"measurement": "Km", "setting": "[6]", "value": 23.7, "unit": "µM"}, {"measurement": "kcat/Km", "setting": "[6]", "value": 5.09, "unit": "M^−1s^−1×10^4"}, {"measurement": "Km", "setting": "[7]", "value": 7.4, "unit": "µM"}, {"measurement": "kcat/Km", "setting": "[7]", "value": 15.5, "unit": "M^−1s^−1×10^4"}]}
{"substance": "MMP-13 (Homo sapiens)", "values": [{"measurement": "Km", "setting": "[8]", "value": 9, "unit": "µM"}, {"measurement": "kcat/Km", "setting": "[8]", "value": 29.6, "unit": "M^−1s^−1×10^4"}, {"measurement": "Km", "setting": "[9]", "value": 0.9, "unit": "µM"}, {"measurement": "kcat/Km", "setting": "[9]", "value": 424, "unit": "M^−1s^−1×10^4"}, {"measurement": "Km", "setting": "[10]", "value": 1.5, "unit": "µM"}, {"measurement": "kcat/Km", "setting": "[10]", "value": 158, "unit": "M^−1s^−1×10^4"}, {"measurement": "Km", "setting": "[11]", "value": 1.2, "unit": "µM"}, {"measurement": "kcat/Km", "setting": "[11]", "value": 293, "unit": "M^−1s^−1×10^4"}]}
{"substance": "MMP-8 (Homo sapiens)", "values": [{"measurement": "Km", "setting": "[12]", "value": 16.7, "unit": "µM"}, {"measurement": "kcat/Km", "setting": "[12]", "value": 13.9, "unit": "M^−1s^−1×10^4"}, {"measurement": "Km", "setting": "[13]", "value": 9.1, "unit": "µM"}, {"measurement": "kcat/Km", "setting": "[13]", "value": 17.9, "unit": "M^−1s^−1×10^4"}, {"measurement": "Km", "setting": "[14]", "value": 3.3, "unit": "µM"}, {"measurement": "kcat/Km", "setting": "[14]", "value": 14.6, "unit": "M^−1s^−1×10^4"}, {"measurement": "Km", "setting": "[15]", "value": 4.4, "unit": "µM"}, {"measurement": "kcat/Km", "setting": "[15]", "value": 52.2, "unit": "M^−1s^−1×10^4"}]}
